{"source": "paper PMC5716094", "binders": {"B1": {"name": "R5 duplex (dsDNA)", "DNA 1": "GTTAGGGTTAGGGTTAGGGTTAGGGTTAGGGTTAG", "DNA 2": "CTAACCCTAACCCTAACCCTAACCCTAACCCTAAC"}, "B2": {"name": "R2 duplex (dsDNA)", "DNA 1": "GTTAGGGTTAGGGTTAG", "DNA 2": "CTAACCCTAACCCTAAC"}}, "key": {"ΔBTRF2 [1]": {"molecular_target": "T1, ΔBTRF2 (human, UniProt Q15554 87-542, del43-86)", "T1 sequence (Q15554 87-542, stated change not applied)": "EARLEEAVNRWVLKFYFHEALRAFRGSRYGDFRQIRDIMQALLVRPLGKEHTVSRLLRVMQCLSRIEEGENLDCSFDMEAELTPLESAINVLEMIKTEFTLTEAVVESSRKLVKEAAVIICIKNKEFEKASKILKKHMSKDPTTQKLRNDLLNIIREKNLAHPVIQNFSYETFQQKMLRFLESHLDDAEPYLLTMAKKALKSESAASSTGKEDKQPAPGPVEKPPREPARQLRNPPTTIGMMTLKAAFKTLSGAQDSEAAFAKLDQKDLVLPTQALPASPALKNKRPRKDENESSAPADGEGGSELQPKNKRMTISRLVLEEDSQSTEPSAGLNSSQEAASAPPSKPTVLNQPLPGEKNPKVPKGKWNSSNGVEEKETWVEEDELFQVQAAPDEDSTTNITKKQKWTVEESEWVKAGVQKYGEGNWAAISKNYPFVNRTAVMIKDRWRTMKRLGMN", "assay": "fluorescence anisotropy"}, "TRF2 [2]": {"molecular_target": "T2, TRF2 (human, UniProt Q15554 43-542)", "assay": "fluorescence anisotropy"}, "B-domain of TRF2": {"molecular_target": "T3, B-domain of TRF2 (human, UniProt Q15554 43-86)", "T3 chain": "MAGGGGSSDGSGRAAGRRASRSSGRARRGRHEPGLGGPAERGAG", "assay": "SAXS"}, "TRF2 [3]": {"molecular_target": "T2, TRF2", "assay": "fluorescence anisotropy", "remark": "listed apart in the source"}, "ΔBTRF2 [4]": {"molecular_target": "T1, ΔBTRF2", "assay": "fluorescence anisotropy", "remark": "listed apart in the source"}}, "note": "Like-named read-outs stand apart in the source and are kept apart here.", "data": [{"binder": "B1", "values": [{"measurement": "binding signal", "setting": "ΔBTRF2 [1]", "value": "~2", "unit": "fold higher Kd than TRF2"}, {"measurement": "binding signal", "setting": "TRF2 [2]", "value": "~2", "unit": "fold lower Kd than ΔBTRF2"}]}, {"binder": "B2", "values": [{"measurement": "binding result", "setting": "B-domain of TRF2", "value": "binds"}, {"measurement": "binding signal", "setting": "TRF2 [3]", "value": "~2", "unit": "fold lower Kd than ΔBTRF2"}, {"measurement": "binding result", "setting": "ΔBTRF2 [4]", "value": "binds"}]}]}
